In patent US20260265348A1 (HEIDELBERG IMMUNOTHERAPEUTICS, published 2026):

Legend:
[1] = target: T1, HSV-1F gB R304Q (HDIT101-resistance mutant) (HSV-1 strain F, UniProt P06436 30-903); assay: cell-based or functional assay
HSV-1F gB Y326A = HSV-1F gB Y326A (HSV-1 strain F, UniProt P06436 30-903); assay: cell-based or functional assay
HSV-1F gB K320A = HSV-1F gB K320A (HSV-1 strain F, UniProt P06436 30-903); assay: cell-based or functional assay
HSV-1F gB K204A = HSV-1F gB K204A (HSV-1 strain F, UniProt P06436 30-903); assay: cell-based or functional assay
HSV-1F gB R335A = HSV-1F gB R335A (HSV-1 strain F, UniProt P06436 30-903); assay: cell-based or functional assay
[2] = target: glycoprotein B (gB) of HSV-1 strain F, full length, wild type (HSV-1 strain F, UniProt P06436 30-903); assay: cell-based or functional assay
HSV-1F gB D199A = HSV-1F gB D199A (HSV-1 strain F, UniProt P06436 30-903); assay: cell-based or functional assay
[3] = target: HSV-1F gB R335Q (HDIT102(H4)-resistant escape mutant) (HSV-1 strain F, UniProt P06436 30-903); assay: cell-based or functional assay
[4] = target: glycoprotein B (gB) of HSV-2 strain G, full length, wild type (HSV-2 strain G); assay: cell-based or functional assay
[5] = target: T2, recombinant HSV-1F glycoprotein B (gB) ectodomain (aa 30-729), trimeric (HSV-1 strain F, UniProt P06436 30-729); assay: BLI (Octet), biotinylated gB on streptavidin tips, Fab dilution series, global 1:1 fit; Fab; HSV-1F gB
T2 construct: also called recombinant HSV-1 gB; HSV-1F gB

[6] = target: T2, recombinant HSV-1F glycoprotein B (gB) …; assay: BLI (Octet), Fab, Kd=kdis/ka
[7] = target: T2, recombinant HSV-1F glycoprotein B (gB) …; assay: BLI (Octet), biotinylated gB on streptavidin tips, IgG in solution; full IgG, not Fab
[8] = target: T1, HSV-1F gB R304Q (HDIT101-resistance …); assay: flow cytometry of HEK293T cells transfected with a gB plasmid, FITC anti-human Fc secondary antibody, iMFI
[9] = target: T2, recombinant HSV-1F glycoprotein B (gB) …; assay: BLI (Octet), biotinylated gB on streptavidin tips, Fab dilution series, global 1:1 fit

B1: HDIT102(H4), fully human IgG1 anti-HSV gB antibody (antibody, V domains shown)
VH: EVQLVQSGAEVKTPGASVRVSCKASGHTFRTFDINWVRQAAGQGLEWMGWMSPNSGNTGYARQFQGRVTMTRNISANTAYMELRGLRFDDTAVYYCARGPGSTGTTGSMDVWGQGTTVTVSS
VL: QAGLTQPPSVSVAPGKTARISCGGNNIGSKSVHWYQQKPGQAPVLVIYYDSDRPSGIPERFSGSNSGNTATLTISRVEAGDEADYYCQVWDSGSVVFGGGTKLTVLG
inhibition of gB-mediated cell-cell fusion by HDIT102(H4) (75 µg/ml), relative to wild type gB [1]: 92.3 % of WT | inhibition of gB-mediated cell-cell fusion by HDIT102(H4) (75 µg/ml), relative to wild type gB (HSV-1F gB Y326A): 72.7 % of WT | inhibition of gB-mediated cell-cell fusion by HDIT102(H4) (75 µg/ml), relative to wild type gB (HSV-1F gB K320A): 90.1 % of WT | inhibition of gB-mediated cell-cell fusion by HDIT102(H4) (75 µg/ml), relative to wild type gB (HSV-1F gB K204A): 57.3 % of WT | inhibition of gB-mediated cell-cell fusion by HDIT102(H4) (75 µg/ml), relative to wild type gB (HSV-1F gB R335A): 19.3 % of WT | inhibitory concentration for 50% neutralization (IC50) of 100 TCID50 cell-free HSV-1F on Vero cells [2]: 25.5 nM | inhibition of gB-mediated cell-cell fusion by HDIT102(H4) (75 µg/ml), relative to wild type gB (HSV-1F gB D199A): 32.9 % of WT | inhibition of gB-mediated cell-cell fusion by HDIT102(H4) (75 µg/ml), relative to wild type gB [3]: 18.8 % of WT | inhibitory concentration for 50% neutralization (IC50) of 100 TCID50 cell-free HSV-2G on Vero cells [4]: 12.5 nM

B2: HDIT102(H4) Fab (Fab, V domains shown)
VH: EVQLVQSGAEVKTPGASVRVSCKASGHTFRTFDINWVRQAAGQGLEWMGWMSPNSGNTGYARQFQGRVTMTRNISANTAYMELRGLRFDDTAVYYCARGPGSTGTTGSMDVWGQGTTVTVSS
VL: QAGLTQPPSVSVAPGKTARISCGGNNIGSKSVHWYQQKPGQAPVLVIYYDSDRPSGIPERFSGSNSGNTATLTISRVEAGDEADYYCQVWDSGSVVFGGGTKLTVLG
notes: also called Fab HDIT102; Fab HDIT102 (H4)
koff [5]: 8.85e-05 s⁻¹ | kon [5]: 992000 M⁻¹ s⁻¹ | Kd [6]: 0.0895 nM

B3: HDIT101, humanized IgG1 MAb2c (antibody, V domains shown)
VH: QVTLKESGPALVKPTQTLTLTCTFSGFSLSTSGMSVGWIRQPPGKALEWLAHIWWNNDKYYKPALKSRLTISKDTSKNQVVLTMTNMDPVDTATYYCARIYYGYRPYAMDYWGQGTLVTVSS
VL: DIVMTQTPLSLPVTPGEPASISCRSSQSIVHSNGNTYLEWYLQKPGQSPQLLIYKVSNRFSGVPDRFSGSGSGTDFTLKISRVEAEDVGVYYCFQGSHVPWSFGQGTKVEIKR
notes: also called MAb hu2c; HDIT101 IgG
koff [7]: ~0.0011 s⁻¹ | binding result [8]: no binding

B4: HDIT101 Fab (Fab, V domains shown)
VH: QVTLKESGPALVKPTQTLTLTCTFSGFSLSTSGMSVGWIRQPPGKALEWLAHIWWNNDKYYKPALKSRLTISKDTSKNQVVLTMTNMDPVDTATYYCARIYYGYRPYAMDYWGQGTLVTVSS
VL: DIVMTQTPLSLPVTPGEPASISCRSSQSIVHSNGNTYLEWYLQKPGQSPQLLIYKVSNRFSGVPDRFSGSGSGTDFTLKISRVEAEDVGVYYCFQGSHVPWSFGQGTKVEIKR
kon [5]: 435000 M⁻¹ s⁻¹ | Kd [6]: 7.26 nM | koff [9]: 0.00313 s⁻¹
